The record followed here is patent US20190060430A1 (published 2019).

Common to all, as to experiment: cytokine release
The target in test [1] is T1, TPTE peptide on HLA-DRB1*15:01 (human).
T1 peptide: DSKLYIPLEYRSISLAIAL

Test [2] deals with T2, TPTE peptide on HLA-DRB1*13:01 (human).
T2 peptide: VLLRVFVERRQQYFS

The target of test [3] is T3, TPTE peptide on HLA-DRB1*13:01 (human).
T3 peptide: KLIRRRVSENKRRYT

The target in test [4] is T4, TPTE peptide on HLA-DRB1*13:01 (human).
T4 peptide: RRVSENKRRYTRDGF

The target in test [5] is T5, TPTE peptide on HLA-DRB1*15:01 (human).
T5 peptide: DVVYIFFDIKLLRNI

In test [6] the target is T6, TPTE peptide on HLA-DRB1*15:01 (human).
T6 peptide: RRQQYFSDLFNILDT

Test [7] has as its target T7, TPTE peptide on HLA-DRB1*15:01 (human).
T7 peptide: LFNILDTAIIVILLL

In test [8] the target is T8, TPTE peptide on HLA-DRB1*15:01 (human).
T8 peptide: IKKIVHSIVSSFAFG

The target in test [9] is T9, TPTE peptide on HLA-DQA1*01:02 / HLA-DQB1*06:02 (human).
T9 peptide: VLDNITTDKILIDVF

Test [10] has as its target T10, TPTE peptide on HLA-DQA1*01:03 / HLA-DQB1*06:02 (human).
T10 peptide: VLDNITTDKILIDVF

Test [11] addresses T11, TPTE peptide on HLA-DQA1*01:03 / HLA-DQB1*06:03 (human).
T11 peptide: VLDNITTDKILIDVF

Test [12] has as its target T12, TPTE peptide on HLA-DRB1*13:01 (human).
T12 peptide: KHFIIYSIPRYVRDLKIQI

B1: TCRCD4-TPT#52 (TCR, V domains shown)
Valpha: AQSVTQPDIHITVSEGASLELRCNYSYGATPYLFWYVQSPGQGLQLLLKYFSGDTLVQGIKGFEAEFKRSQSSFNLRKPSVHWSDAAEYFCAVGAQGAQKLVFGQGTRLTINP
Vbeta: NAGVTQTPKFQVLKTGQSMTLQCAQDMNHNSMYWYRQDPGMGLRLIYYSASEGTTDKGEVPNGYNVSRLNKREFSLRLESAAPSQTSVYFCASSEAGGSSFEQYFGPGTRLTVT
For B1, in [1], the binding result is listed as “recognises”.

B2: TCRCD4-TPT#59 (TCR, V domains shown)
Valpha: ELKVEQNPLFLSMQEGKNYTIYCNYSTTSDRLYWYRQDPGKSLESLFVLLSNGAVKQEGRLMASLDTKARLSTLHITAAVHDLSATYFCAVDNEFYFGTGTSLTVIP
Vbeta: DTGVSQDPRHKITKRGQNVTFRCDPISEHNRLYWYRQTLGQGPEFLTYFQNEAQLEKSRLLSDRFSAERPKGSFSTLEIQRTEQGDSAMYLCASSLLGAGNIQYFGAGTRLSVL
B2: the binding result in [2] is reported as “recognises”.

B3: TCRCD4-TPT#51 (TCR, V domains shown)
Valpha: GENVEQHPSTLSVQEGDSAVIKCTYSDSASNYFPWYKQELGKRPQLIIDIRSNVGEKKDQRIAVTLNKTAKHFSLHITETQPEDSAVYFCAALSGGSNYKLTFGKGTLLTVNP
Vbeta: EAGVTQFPSHSVIEKGQTVTLRCDPISGHDNLYWYRRVMGKEIKFLLHFVKESKQDESGMPNNRFLAERTGGTYSTLKVQPAELEDSGVYFCASSQQENTEAFFGQGTRLTVV
For the molecule B3, in test [3], the binding result is “recognises”.

B4: TCRCD4-TPT#78 (TCR, V domains shown)
Valpha: AQSVTQLDSQVPVFEEAPVELRCNYSSSVSVYLFWYVQYPNQGLQLLLKYLSGSTLVKGINGFEAEFNKSQTSFHLRKPSVHISDTAEYFCAVGPNNFNKFYFGSGTKLNVKP
Vbeta: EPEVTQTPSHQVTQMGQEVILRCVPISNHLYFYWYRQILGQKVEFLVSFYNNEISEKSEIFDDQFSVERPDGSNFTLKIRSTKLEDSAMYFCASSPVGGYNSPLHFGNGTRLTVT
Regarding B4, the binding result in [4] is “recognises”.

B5: TCRCD4-TPT#79 (TCR, V domains shown)
Valpha: AQTVTQSQPEMSVQEAETVTLSCTYDTSESDYYLFWYKQPPSRQMILVIRQEAYKQQNATENRFSVNFQKAAKSFSLKISDSQLGDAAMYFCAYRSYNAGNMLTFGGGTRLMVKP
Vbeta: KAGVTQTPRYLIKTRGQQVTLSCSPISGHRSVSWYQQTPGQGLQFLFEYFSETQRNKGNFPGRFSGRQFSNSRSEMNVSTLELGDSALYLCASSDTSGGGGEQFFGPGTRLTVL
In the case of B5, the binding result in test [5], in test [6] and in test [7] was “recognises” throughout.

B6: TCRCD4-TPT#57 (TCR, V domains shown)
Valpha: AQSVSQHNHHVILSEAASLELGCNYSYGGTVNLFWYVQYPGQHLQLLLKYFSGDPLVKGIKGFEAEFIKSKFSFNLRKPSVQWSDTAEYFCAVNARDNAGKSTFGDGTTLTVKP
Vbeta: KAGVTQTPRYLIKTRGQQVTLSCSPISGHRSVSWYQQTPGQGLQFLFEYFSETQRNKGNFPGRFSGRQFSNSRSEMNVSTLELGDSALYLCASRGEPSSYEQYFGPGTRLTVT
As for B6, the binding result in test [8] is reported as “recognises”.

B7: TCRCD4-TPT#76 (TCR, V domains shown)
Valpha: AQSVTQPDIHITVSEGASLELRCNYSYGATPYLFWYVQSPGQGLQLLLKYFSGDTLVQGIKGFEAEFKRSQSSFNLRKPSVHWSDAAEYFCAVGAFTRGGSEKLVFGKGMKLTVNP
Vbeta: DGGITQSPKYLFRKEGQNVTLSCEQNLNHDAMYWYRQDPGQGLRLIYYSQIVNDFQKGDIAEGYSVSREKKESFPLTVTSAQKNPTAFYLCATGSYVGYEQYFGPGTRLTVT
Take B7: the binding result in test [9], in test [10] and in test [11] was “recognises” throughout.

B8: TCRCD4-TPT#77 (TCR, V domains shown)
Valpha: AQKITQTQPGMFVQEKEAVTLDCTYDTSDPSYGLFWYKQPSSGEMIFLIYQGSYDQQNATEGRYSLNFQKARKSANLVISASQLGDSAMYFCAMREGLAKTSYDKVIFGPGTSLSVIP
Vbeta: GAVVSQHPSWVICKSGTSVKIECRSLDFQATTMFWYRQFPKQSLMLMATSNEGSKATYEQGVEKDKFLINHASLTLSTLTVTSAHPEDSSFYICSAPGTGHSAGELFFGEGSRLTVL
As to B8, the binding result in test [12] is “recognises”.
